Source: PMC11269473, “Monoamine oxidase inhibition properties of 2,1-benzisoxazole derivatives” (Molecular Diversity, 2023)

B1: recombinant human MAO-B (Homo sapiens) (protein)
chain: MSNKCDVVVVGGGISGMAAAKLLHDSGLNVVVLEARDRVGGRTYTLRNQKVKYVDLGGSYVGPTQNRILRLAKELGLETYKVNEVERLIHHVKGKSYPFRGPFPPVWNPITYLDHNNFWRTMDDMGREIPSDAPWKAPLAEEWDNMTMKELLDKLCWTESAKQLATLFVNLCVTAETHEVSALWFLWYVKQCGGTTRIISTTNGGQERKFVGGSGQVSERIMDLLGDRVKLERPVIYIDQTRENVLVETLNHEMYEAKYVISAIPPTLGMKIHFNPPLPMMRNQMITRVPLGSVIKCIVYYKEPFWRKKDYCGTMIIDGEEAPVAYTLDDTKPEGNYAAIMGFILAHKARKLARLTKEERLKKLCELYAKVLGSLEALEPVHYEEKNWCEEQYSGGCYTTYFPPGILTQYGRVLRQPVDRIYFAGTETATHWSGYMEGAVEAGERAAREILHAMGKIPEDEIWQSEPESVDVPAQPITTTFLERHLPSVPGLLRLIGLTTIFSATALGFLAHKRGLLVRV
notes: purchased Sigma-Aldrich; host or cells: insect cells (microsomes)
B2: recombinant human MAO-A (Homo sapiens) (protein)
chain: MENQEKASIAGHMFDVVVIGGGISGLSAAKLLTEYGVSVLVLEARDRVGGRTYTIRNEHVDYVDVGGAYVGPTQNRILRLSKELGIETYKVNVSERLVQYVKGKTYPFRGAFPPVWNPIAYLDYNNLWRTIDNMGKEIPTDAPWEAQHADKWDKMTMKELIDKICWTKTARRFAYLFVNINVTSEPHEVSALWFLWYVKQCGGTTRIFSVTNGGQERKFVGGSGQVSERIMDLLGDQVKLNHPVTHVDQSSDNIIIETLNHEHYECKYVINAIPPTLTAKIHFRPELPAERNQLIQRLPMGAVIKCMMYYKEAFWKKKDYCGCMIIEDEDAPISITLDDTKPDGSLPAIMGFILARKADRLAKLHKEIRKKKICELYAKVLGSQEALHPVHYEEKNWCEEQYSGGCYTAYFPPGIMTQYGRVIRQPVGRIFFAGTETATKWSGYMEGAVEAGERAAREVLNGLGKVTEKDIWVQEPESKDVPAVEITHTFWERNLPSVSGLLKIIGFSTSVTALGFVLYKYKLLPRS
notes: as for B1

What was measured:
[1] = substrate: NCCC(=O)c1ccccc1N; test: Lineweaver–Burk plots / mode of MAO-B inhibition and Ki; assay type: biochemical, human; conditions: other: global (shared) fitting of the kinetic data; pH 7.4; 37.0 °C
Procedure: (§1) These two compounds represent potent MAO inhibitors among the study compounds. […] Each line of the Lineweaver–Burk plots was constructed with the kynuramine concentration ranging from 15 to 250 μM.
(§2) The insets are replots of the slopes of the Lineweaver–Burk plots versus inhibitor concentration. The Ki value equals the negative of the x-axis intercept when y = 0
(§3) IC50 values for the inhibition of MAO were measured as described previously. Microsomes from insect cells containing recombinant human MAO-A and MAO-B (5 mg protein/mL) served as enzyme sources (Sigma-Aldrich) while kynuramine was used as non-specific MAO substrate. The enzyme reactions (200 µL reactions prepared in 96-well microtiter plates) contained phosphate buffer (100 mM, pH 7.4), 50 µM kynuramine and the test inhibitors at concentrations of 0.003–100 µM. Stock solutions of the test inhibitors were dissolved in DMSO and added to the enzyme reactions to give a final DMSO concentration of 4% (v/v). […] The concentration of 4-hydroxyquinoline, the product of kynuramine oxidation by MAO, was measured by fluorescence spectrophotometry (λex = 310 nm; λem = 400 nm). […] IC50 values were estimated in triplicate determinations from these plots and are expressed as mean ± standard deviation (SD). […]

[2] = substrate: NCCC(=O)c1ccccc1N; test: Lineweaver–Burk plots / mode of MAO-A inhibition and Ki; assay type: biochemical, human; conditions: other: global (shared) fitting of the kinetic data; pH 7.4; 37.0 °C
Procedure: as §1, §2, §3

Protein	Km [1]	Vmax [1]	Km [2]	Vmax [2]
B1	32.4 ± 3.73 µM	8.39 ± 0.28 nmol/min.mg protein		
B2			49.8 ± 3.07 µM	34.0 ± 0.80 nmol/min.mg protein
